The subject of series [1] is TMD2-I424A (TMD2 in which the isoleucine at position 424 is substituted with alanine).
Series [2] has as its system human TMD2 (wild-type soluble human thrombomodulin truncated immediately after EGF6, without signal peptide).
Series [3] relates to TM-LE15 (truncated form of TMD2 in which the EGF 6 domain is removed).
For series [4], the system named is human TMD1 (soluble thrombomodulin containing the amino terminal domain, EGF domain and ST domain, without signal peptide).

TM-LE15 (truncated form of TMD2 in which the EGF 6 domain is removed), sequence (chain, as listed by the source): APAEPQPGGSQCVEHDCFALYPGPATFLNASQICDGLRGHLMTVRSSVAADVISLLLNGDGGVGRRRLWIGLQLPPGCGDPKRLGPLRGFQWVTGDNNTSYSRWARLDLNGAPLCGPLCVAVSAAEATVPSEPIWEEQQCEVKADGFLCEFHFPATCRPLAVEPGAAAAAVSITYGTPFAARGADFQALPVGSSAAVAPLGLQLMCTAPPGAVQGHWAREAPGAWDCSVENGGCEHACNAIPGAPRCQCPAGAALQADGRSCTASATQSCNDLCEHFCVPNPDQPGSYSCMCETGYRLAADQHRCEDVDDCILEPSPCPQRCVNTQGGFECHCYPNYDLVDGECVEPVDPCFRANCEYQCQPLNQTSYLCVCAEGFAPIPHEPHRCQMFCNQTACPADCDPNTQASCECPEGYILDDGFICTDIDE

Take human thrombin: the Vmax (mOD405/min) of human protein C activation in series [1] stood at 6.9 mOD405/min; in series [2] it was 39.1 mOD405/min; in series [3], 8.3 mOD405/min; in series [4] it was 43.3 mOD405/min.

The values are drawn from patent US20110207670.
